First the molecules themselves.
B1: Isoform 2 of Bardet-Biedl syndrome 7 protein (Homo sapiens), Q8IWZ6-2 (parent)
chain: MDLILNRMDYLQVGVTSQKTMKLIPASRHRATQKVVIGDHDGVVMCFGMKKGEAAAVFKTLPGPKIARLELGGVINTPQEKIFIAAASEIRGFTKRGKQFLSFETNLTESIKAMHISGSDLFLSASYIYNHYCDCKDQHYYLSGDKINDVICLPVERLSRITPVLACQDRVLRVLQGSDVMYAVEVPGPPTVLALHNGNGGDSGEDLLFGTSDGKLALIQITTSKPVRKWEIQNEKKRGGILCIDSFDIVGDGVKDLLVGRDDGMVEVYSFDNANEPVLRFDQMLSESVTSIQGGCVGKDSYDEIVVSTYSGWVTGLTTEPIHKESGPGEELKINQEMQNKISSLRNELEHLQYKVLQERENYQQSSQSSKAKSAVPSFGINDKFTLNKDDASYSLILEVQTAIDNVLIQSDVPIDLLDVDKNSAVVSFSSCDSESNDNFLLATYRCQADTTRLELKIRSIEGQYGTLQAYVTPRIQPKTCQVRQYHIKPLSLHQRTHFIDHDRPMNTLTLTGQFSFAEVHSWVVFCLPEVPEKPPAGECVTFYFQNTFLDTQLESTYRKGEGVFKSDNISTISILKDVLSKEATKRKINLNISYEINEVSVKHTLKLIHPKLEYQLLLAKKVQLIDALKELQIHEGNTNFLIPEYHCILEEADHLQEEYKKQPAHLERLYG
partner: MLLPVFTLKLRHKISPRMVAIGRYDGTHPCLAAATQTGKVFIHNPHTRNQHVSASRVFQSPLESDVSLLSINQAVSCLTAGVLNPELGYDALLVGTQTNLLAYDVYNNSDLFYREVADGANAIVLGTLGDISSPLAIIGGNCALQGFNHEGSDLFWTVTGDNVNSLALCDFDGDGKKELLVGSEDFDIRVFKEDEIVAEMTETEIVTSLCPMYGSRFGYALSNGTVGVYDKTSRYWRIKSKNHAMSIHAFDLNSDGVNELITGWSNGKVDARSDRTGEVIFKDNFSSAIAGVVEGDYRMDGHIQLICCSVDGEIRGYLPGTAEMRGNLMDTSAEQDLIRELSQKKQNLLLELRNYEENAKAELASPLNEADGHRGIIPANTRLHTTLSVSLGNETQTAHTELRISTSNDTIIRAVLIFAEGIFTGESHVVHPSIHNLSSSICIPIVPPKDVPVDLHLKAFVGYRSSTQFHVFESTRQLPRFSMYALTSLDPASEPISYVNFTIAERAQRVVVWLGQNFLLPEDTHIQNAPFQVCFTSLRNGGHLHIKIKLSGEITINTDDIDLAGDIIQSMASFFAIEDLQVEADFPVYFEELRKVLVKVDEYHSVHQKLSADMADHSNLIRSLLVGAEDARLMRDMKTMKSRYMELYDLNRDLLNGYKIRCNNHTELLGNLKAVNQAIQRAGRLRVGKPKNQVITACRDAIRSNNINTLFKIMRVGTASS

Variants of B1 are the subject of this test. As to conditions: with bbs2_human BBS2, Q9BXC9.
For the variant K422E, the “effect of a mutation on the interaction” value is on record as “with no effect”. Turning to K422A, the “effect of a mutation on the interaction” value was “with no effect”.

For I409E, the “effect of a mutation on the interaction” value is on record as “with no effect”. As for I409A, the entry is “with no effect”.

As for I409K, the “effect of a mutation on the interaction” value is “with no effect”. Then V426K, with “with no effect”. V426E: the “effect of a mutation on the interaction” value is “with no effect”. Then V426A, with “with no effect”; and S393E, with “with no effect”; and S393A, with “with no effect”. Then S393K, with “with no effect”; and A392K, with “with no effect”. Then A392E, with “with no effect”; and V413E, with “with no effect”; and V413K, with “with no effect”. As to V413A, the “effect of a mutation on the interaction” value is reported as “with no effect”. Take L408K: the “effect of a mutation on the interaction” value is on record as “with no effect”.

Regarding L408E, the “effect of a mutation on the interaction” value was “with no effect”. Then L408A, with “with no effect”; and R446A, with “with no effect”. Regarding R446E, the “effect of a mutation on the interaction” value is on record as “with no effect”.

As to R446K, the “effect of a mutation on the interaction” value is reported as “with no effect”.

In the case of S430A, the “effect of a mutation on the interaction” value is “with no effect”. Then S430K, with “with no effect”; and S430E, with “with no effect”; and S428A, with “with no effect”. In the case of S428E, the “effect of a mutation on the interaction” value is listed as “with no effect”. Then S428K, with “with no effect”. F440A: the “effect of a mutation on the interaction” value is given as “with no effect”. As for F440K, the entry is “with no effect”. Then F440E, with “with no effect”. As for T402A, the entry is “with no effect”; as for T402E, “with no effect”; as for T402K, “with no effect”. On to S434E, for which the “effect of a mutation on the interaction” value was “with no effect”. On to S434K, for which the “effect of a mutation on the interaction” value was “with no effect”.

On to S434A, for which the “effect of a mutation on the interaction” value is listed as “with no effect”. Then D421E, with “with no effect”; and D421A, with “with no effect”. In the case of D421K, the “effect of a mutation on the interaction” value is given as “with no effect”. As for S395K, the entry is “with no effect”; as for S395A, “with no effect”; as for S395E, “with no effect”. As for D416K, the entry is “with no effect”; as for D416A, “with no effect”; as for D416E, “with no effect”. With Y394A, the “effect of a mutation on the interaction” value is recorded as “with no effect”. Then Y394K, with “with no effect”. Then Y394E, with “with no effect”; and T451A, with “with no effect”. On to Y445K, for which the “effect of a mutation on the interaction” value is on record as “with no effect”. Then Y445E, with “with no effect”; and Y445A, with “with no effect”. For the variant I415K, the “effect of a mutation on the interaction” value was “with no effect”. With I415E, the “effect of a mutation on the interaction” value is reported as “with no effect”. For I415A, the “effect of a mutation on the interaction” value is given as “with no effect”. P414K: the “effect of a mutation on the interaction” value is listed as “with no effect”. As for P414A, the “effect of a mutation on the interaction” value is “with no effect”. Turning to P414E, the “effect of a mutation on the interaction” value was “with no effect”. As for D412A, the entry is “with no effect”.

With D412E, the “effect of a mutation on the interaction” value is reported as “with no effect”. Then D412K, with “with no effect”. Then Q410E, with “with no effect”. Turning to Q410A, the “effect of a mutation on the interaction” value is on record as “with no effect”. As to Q410K, the “effect of a mutation on the interaction” value is “with no effect”. For the variant N439A, the “effect of a mutation on the interaction” value was “disrupting interaction strength”. Regarding N439K, the “effect of a mutation on the interaction” value was “with no effect”. As for N439E, the entry is “with no effect”; as for E435K, “with no effect”; as for E435A, “with no effect”. As for Q448A, the entry is “with no effect”; as for Q448E, “with no effect”; as for Q448K, “disrupting interaction strength”. As for C432A, the entry is “with no effect”. Regarding C432E, the “effect of a mutation on the interaction” value was “with no effect”.

Regarding C432K, the “effect of a mutation on the interaction” value was “with no effect”.

D390E: the “effect of a mutation on the interaction” value was “with no effect”. As for D390A, the entry is “with no effect”. With D390K, the “effect of a mutation on the interaction” value was “with no effect”. For the variant S436K, the “effect of a mutation on the interaction” value was “with no effect”. As for S436E, the entry is “with no effect”; as for S436A, “with no effect”; as for L441E, “with no effect”. As for L441A, the entry is “with no effect”; as for L441K, “with no effect”; as for V407E, “with no effect”.

For the variant V407K, the “effect of a mutation on the interaction” value is recorded as “with no effect”.

For the variant V407A, the “effect of a mutation on the interaction” value is “with no effect”.

Turning to N388K, the “effect of a mutation on the interaction” value is “with no effect”. Then I404K, with “with no effect”; and I404E, with “with no effect”; and I404A, with “with no effect”.

With D419K, the “effect of a mutation on the interaction” value is given as “with no effect”. Turning to D419E, the “effect of a mutation on the interaction” value is “with no effect”. As for D419A, the “effect of a mutation on the interaction” value is reported as “with no effect”.

As to A449K, the “effect of a mutation on the interaction” value is recorded as “with no effect”. Turning to A449T, the “effect of a mutation on the interaction” value was “disrupting interaction strength”. As for A449E, the entry is “with no effect”; as for N406E, “with no effect”; as for N406K, “with no effect”. As for N406A, the entry is “with no effect”; as for A443K, “with no effect”; as for A443E, “disrupting interaction strength”. Take S424E: the “effect of a mutation on the interaction” value was “with no effect”. As for S424K, the entry is “with no effect”; as for S424A, “with no effect”. As for D438E, the entry is “with no effect”; as for D438K, “with no effect”.

Consider D438A, for which the “effect of a mutation on the interaction” value is reported as “with no effect”. Then V400E, with “with no effect”; and V400K, with “with no effect”; and V400A, with “with no effect”. Then I397A, with “with no effect”; and I397K, with “with no effect”. Then I397E, with “with no effect”; and L418E, with “with no effect”; and L418K, with “with no effect”.

Regarding L418A, the “effect of a mutation on the interaction” value was “with no effect”.

With D433E, the “effect of a mutation on the interaction” value is “with no effect”. As for D433A, the entry is “with no effect”; as for D433K, “with no effect”; as for V427K, “with no effect”. On to V427A, for which the “effect of a mutation on the interaction” value was “with no effect”. Regarding V427E, the “effect of a mutation on the interaction” value is reported as “with no effect”.

Consider L417K, for which the “effect of a mutation on the interaction” value was “with no effect”. Then L417E, with “with no effect”. As for L417A, the entry is “with no effect”; as for K389A, “with no effect”. K389E: the “effect of a mutation on the interaction” value is given as “with no effect”. Then Q401E, with “with no effect”; and Q401K, with “with no effect”; and Q401A, with “with no effect”. As to F429K, the “effect of a mutation on the interaction” value is reported as “with no effect”.

For F429A, the “effect of a mutation on the interaction” value was “with no effect”. Then F429E, with “with no effect”; and L398E, with “with no effect”; and L398K, with “with no effect”. L398A: the “effect of a mutation on the interaction” value was “with no effect”. As for T444K, the entry is “with no effect”; as for T444E, “with no effect”. For T444A, the “effect of a mutation on the interaction” value is given as “with no effect”. Consider N437E, for which the “effect of a mutation on the interaction” value is given as “with no effect”.

As for N437K, the “effect of a mutation on the interaction” value was “with no effect”. As for N437A, the entry is “with no effect”; as for A425K, “with no effect”; as for A425E, “with no effect”.

Turning to D391E, the “effect of a mutation on the interaction” value is “with no effect”.

With D391A, the “effect of a mutation on the interaction” value is given as “with no effect”.

As for D391K, the “effect of a mutation on the interaction” value is given as “with no effect”. Then S431A, with “with no effect”; and S431E, with “with no effect”. Consider S431K, for which the “effect of a mutation on the interaction” value is given as “with no effect”.

For the variant V420K, the “effect of a mutation on the interaction” value is “with no effect”. Then V420E, with “with no effect”; and V420A, with “with no effect”.

In the case of L396A, the “effect of a mutation on the interaction” value is “with no effect”. As for L396E, the entry is “with no effect”; as for L396K, “with no effect”; as for L396P, “disrupting interaction strength”. Then L442E, with “with no effect”. Regarding L442A, the “effect of a mutation on the interaction” value is on record as “with no effect”. As for L442P, the entry is “disrupting interaction strength”; as for L442K, “with no effect”. As for A403K, the entry is “with no effect”; as for A403E, “with no effect”. As for D405E, the entry is “with no effect”; as for D405K, “with no effect”. D405A: the “effect of a mutation on the interaction” value is recorded as “with no effect”. Then C447K, with “with no effect”; and C447Y, with “disrupting interaction strength”; and C447A, with “with no effect”. Then C447E, with “with no effect”; and E399A, with “with no effect”. As for E399K, the “effect of a mutation on the interaction” value is on record as “with no effect”. Then E399V, with “disrupting interaction strength”; and D450K, with “with no effect”; and D450A, with “with no effect”. As for D450E, the entry is “with no effect”; as for S411E, “with no effect”. Then S411K, with “with no effect”; and S411A, with “with no effect”; and N423E, with “with no effect”.

N423A: the “effect of a mutation on the interaction” value is reported as “with no effect”. N423K: the “effect of a mutation on the interaction” value is “with no effect”.
